# Measured values from the supplement of paper PMC10126150.
# ± gives the standard deviation of the averaged measurements.
# System: ATP
# Assay: switch fluorescence ratio, 500 uM ATP over buffer (Cy3 cluster intensity, sum of 5 cycles each) (fold (ratio)); higher = stronger signal-on switching upon ATP binding; sequences stand for … in TCGTCGGCAGCGTCAGATGTGTATAAGAGACAGTTTTTTTTTTTTTTTTTTTTTTTTT…TC
# Conditions: aptamer strand: ATP DNA aptamer (quencher-CACCTGGGGGAGTATTGCGGAGGAAGG + anchor), 100 nM annealed; ATP concentration: 500 uM
# Summary of the method: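 Clusters with intensities outside 100-1000 RFU were excluded. The remaining Cy3-labelled switching-strand clusters on a modified Illumina MiSeq flow-cell had been annealed to 100 nM quencher-labelled ATP aptamer and imaged in selection buffer, then after 15 min with 500 uM ATP at 22 °C, for five cycles separated by NaOH stripping and re-annealing. The fluorescence ratio, averaged per switch-domain sequence, is each cluster's summed target-cycle Cy3 intensity over its summed buffer-cycle Cy3 intensity.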
# 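Note: ATP exposure 15 min at 22 °C before imaging.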
row,Sequence,switch fluorescence ratio
1,TCGGAGCGGG,1.102 ± 0.0032
2,AGGGTATTTC,1.02 ± 0.012
3,TTTACAGTGG,1.05 ± 0.057
4,GTTTGAACGC,1.08 ± 0.018
5,ATCATGTACA,0.996 ± 0.024
6,TTACTATCTG,1.01 ± 0.019
7,AAGCGCTGTT,1.003 ± 0.0073
8,TGGGTAGGCG,1.02 ± 0.016
9,ATGGGCGGGG,0.9947 ± 0.0065
10,TACTGTTATG,1.1 ± 0.099
11,GGGATTACCA,1 ± 0.056
12,GATCATCCTG,1.008 ± 0.0065
13,TAATAGGCCT,1.026 ± 0.01
14,GGTGGGAGTG,1.37 ± 0.66
15,CGTGCGGTAT,0.987 ± 0.039
16,AATGTACTTT,1.03 ± 0.032
17,GATTATTTGA,0.992 ± 0.061
18,ATGCTGGTAT,0.981 ± 0.024
19,AACGGCGGTG,1.01 ± 0.019
20,GAGGTGGTAG,0.951 ± 0.034
21,CGATTAGTTA,0.998 ± 0.023
22,AAACCGGGGG,1.1 ± 0.085
23,TGGAAATTTT,1 ± 0.038

row,Sequence,switch fluorescence ratio
1,TACTGGGTTC,0.987 ± 0.047
2,GTTTTCCGGA,0.996 ± 0.05
3,GGCATTTGTA,1 ± 0.02
4,TCCCTACTGT,1.02 ± 0.017
5,ACCCGGCTTA,1.19 ± 0.22
6,CATTAATCAT,0.995 ± 0.048
7,GCGAAAAAGG,0.997 ± 0.035
8,ACAGTGCATT,1.03 ± 0.025
9,GTGCGCAATT,2.02 ± 0.082
10,TTAATTGGTT,0.997 ± 0.031
11,GGTAATTATT,0.951 ± 0.067
12,TTCTATATTT,1.01 ± 0.055
13,AGGTGTTGGA,0.985 ± 0.032
14,GGTCGTGCGG,1 ± 0.018
15,TAGACCATGT,1.02 ± 0.034
16,ACCAAGTATC,1.04 ± 0.036
17,ATGTTGATAT,1.01 ± 0.045
18,GTGGGAGGAC,1.078 ± 0.0018
19,TTACCAGTCT,1 ± 0.046
20,CGCATGTAAC,3.43 ± 0.81
21,TGAATTTCTT,0.986 ± 0.022
22,ATTTTAAGGC,1.002 ± 0.0054
23,TGTGACAATG,0.997 ± 0.012

row,Sequence,switch fluorescence ratio
1,AAATCAAACG,1.05 ± 0.018
2,CATGGTTTTG,1 ± 0.023
3,GAAGTCCATG,1.01 ± 0.014
4,CACCGAGTTA,1.04 ± 0.032
5,GTATGAAAAG,0.9736 ± 0.0061
6,TGGACCAAAA,1.03 ± 0.013
7,TTTGGGCCCG,0.9936 ± 0.0014
8,TCACTGTCGC,1.13 ± 0.07
9,AGCAGAAAGT,1 ± 0.04
10,TTGGGGGTGA,1 ± 0.042
11,TTGAGCACGG,0.998 ± 0.019
12,CTGAAGGGCT,1.04 ± 0.017
13,TAGAGAAATA,1.01 ± 0.064
14,GTTGAAGGGG,1.029 ± 0.009
15,ATTGATGGCC,0.963 ± 0.032
16,CGGTAGGCGG,0.971 ± 0.018
17,TGGGAATTTT,1.01 ± 0.049
18,ATATAGATTG,1.03 ± 0.038
19,GACGCAGGTG,2.5 ± 0.24
20,TATGTGTGTT,0.9873 ± 0.0062
21,TATGGATAGT,0.998 ± 0.017
22,GCTTCGGAGA,1.029 ± 0.0017
23,AAAGTAAGCC,0.984 ± 0.018

row,Sequence,switch fluorescence ratio
1,AGCCGAATTC,1.03 ± 0.06
2,TTAAGAACCT,1.31 ± 0.13
3,TGCTTTTTAA,1.03 ± 0.063
4,ACGAAAATTT,1.05 ± 0.13
5,AGGGGTAAGT,0.981 ± 0.011
6,TCGTTATATT,0.98 ± 0.015
7,TAACACTCCT,1.1 ± 0.02
8,CGGGTGGCGA,1.02 ± 0.081
9,TTAAGACGGT,1.03 ± 0.031
10,CGCGACAACA,0.999 ± 0.031
11,CCCTAGGCTT,1.13 ± 0.018
12,AATATGTGTG,0.97933 ± 0.00034
13,CAGTTGACTC,1 ± 0.072
14,GCTTGTTGTA,0.998 ± 0.015
15,ACTGTTGTGT,1.06 ± 0.1
16,ATTTATGTAA,0.987 ± 0.012
17,CGCTTCTGGG,0.98 ± 0.011
18,CACCGAAATG,1.17 ± 0.1
19,GCCTTTGGCA,0.962 ± 0.013
20,AGAGTGTTGG,0.985 ± 0.034
21,AAATGTGGCA,0.9862 ± 0.002
22,GTAGGTAGGT,0.99 ± 0.024
23,GGCATACCGG,0.936 ± 0.019

row,Sequence,switch fluorescence ratio
1,TTGAGATTAT,0.986 ± 0.015
2,CAGTATAAAG,0.9738 ± 0.0068
3,TGTCAAAAAC,1.28 ± 0.29
4,AATTGTGTAC,1.052 ± 0.0018
5,CAAATGGGTC,1.06 ± 0.046
6,AAAGAAGGGA,0.981 ± 0.015
7,GGGGGAGTGT,0.985 ± 0.026
8,GGGATGCAGA,1.05 ± 0.0076
9,CTAGGTAGGG,0.997 ± 0.035
10,CTAGAATGAT,1.014 ± 0.0072
11,GTTATGCTAT,0.996 ± 0.017
12,CGGGGGACTG,1.04 ± 0.039
13,AGCAGGTTGT,1.05 ± 0.015
14,ATTCTTTGGT,0.979 ± 0.054
15,GTGGCATAGC,0.981 ± 0.023
16,GATTTAAGTT,0.9988 ± 0.0098
17,TTAAGGTGAG,1.02 ± 0.021
18,GGGGGACCTT,1.04 ± 0.061
19,AAAAGTGGGC,1.07 ± 0.081
20,ATGGCAGCAT,1.012 ± 0.0057
21,GCCAGGGTCA,1.025 ± 0.0066
22,GATATATATC,0.9903 ± 0.0054
23,GCTGGACGTG,0.9912 ± 0.0055

row,Sequence,switch fluorescence ratio
1,CTGCGGGGGG,0.999 ± 0.015
2,TCGAGACTAG,1.02 ± 0.029
3,GCTCCAATAA,2.49 ± 0.047
4,CCCGGTATTG,1.017 ± 0.007
5,AACATACAGG,1.28 ± 0.019
6,GGGGTAGTCG,0.988 ± 0.012
7,TGGGATATTC,0.9991 ± 0.0032
8,CGGCGAATAT,1.024 ± 0.0011
9,CGGACCAAGG,1 ± 0.077
10,CACATAGACG,1.03 ± 0.046
11,TGCTCCTAAC,1.3 ± 0.051
12,ATCGTAGGTC,0.982 ± 0.052
13,TATGGTGCG,0.984 ± 0.011
14,GGGAAGTCAG,1.002 ± 0.0098
15,ACTTATTGTA,0.9878 ± 0.0098
16,AAGGGAAGCG,1.01 ± 0.039
17,GTTTTGGTTT,0.986 ± 0.024
18,TTACCGGCGC,1.14 ± 0.18
19,TGAATAAAGC,1.05 ± 0.02
20,ACTGTTGTTG,1.006 ± 0.01
21,ATGACGTATT,1.02 ± 0.052
22,TTAGCTTCTT,1.07 ± 0.066
23,TTACATGGTA,0.977 ± 0.0024

row,Sequence,switch fluorescence ratio
1,TTAAACGTGT,1.04 ± 0.03
2,AGTAGCCTGA,1.01 ± 0.013
3,GGTCTAGACG,1.01 ± 0.044
4,GGTCCGATTA,1 ± 0.056
5,TGTGGTTGGA,1 ± 0.012
6,TTCTGGAAAT,0.994 ± 0.016
7,GAACTGCGGA,1.01 ± 0.019
8,CTTGGGTTCT,1 ± 0.012
9,GTTGGCTTGG,1.02 ± 0.04
10,GGTTGAGGGC,1 ± 0.02
11,GATTTACGAT,1.026 ± 0.0019
12,GCGGAGCTTT,1.01 ± 0.015
13,ATTGATAGCA,1.03 ± 0.028
14,GTTGTATGTT,1.02 ± 0.039
15,CGTATATTAA,0.975 ± 0.068
16,CCCAGTAGCG,1.03 ± 0.017
17,CCATAGTTGC,1.57 ± 0.086
18,TTTCTGGGGA,0.991 ± 0.034
19,AATTTCATTG,0.9986 ± 0.0035
